In paper PMC10249356 (Biochemistry, 2023):

What was measured:
[1] = system: T1, C/C(=C\C(=O)O)C(=O)SCCNC(=O)CCNC(=O)[C@H](O)C(C)(C)COP(=O)(O)OP(=O)(O)OC[C@H]1O[C@@H](n2cnc3c(N)ncnc32)[C@H](O)[C@@H]1OP(=O)(O)O; test: purified protein; format: biochemical, Clostridium kluyveri; conditions: 200 mM HEPES pH 7.5, 400 µM NADPH, 400 nM enzyme, 30 °C, apparent KM
T1 construct: His-tagged, expressed in E. coli BL21(DE3), HisTrap purified (gel filtration for crystals); homodimer

[2] = system: T2, CC(C)(COP(=O)(O)OP(=O)(O)OC[C@H]1O[C@@H](n2cnc3c(N)ncnc32)[C@H](O)[C@@H]1OP(=O)(O)O)[C@@H](O)C(=O)NCCC(=O)NCCSC(=O)CCC(=O)O; test: purified protein; format: biochemical, Clostridium kluyveri; conditions: 200 mM HEPES pH 7.5, 400 µM NADPH, 400 nM enzyme, 30 °C, apparent KM
T2 construct: His-tagged, expressed in E. coli BL21(DE3), HisTrap purified (gel filtration for crystals); homodimer

CkSucD = target: T3, CkSucD (Clostridium kluyveri, UniProt P38947); test: X-ray crystal structure, […] Å; format: binding
T3 construct: gene sucD; His-tagged, expressed in E. coli BL21(DE3), HisTrap purified (gel filtration for crystals); homodimer
T3 sequence (P38947 1-453): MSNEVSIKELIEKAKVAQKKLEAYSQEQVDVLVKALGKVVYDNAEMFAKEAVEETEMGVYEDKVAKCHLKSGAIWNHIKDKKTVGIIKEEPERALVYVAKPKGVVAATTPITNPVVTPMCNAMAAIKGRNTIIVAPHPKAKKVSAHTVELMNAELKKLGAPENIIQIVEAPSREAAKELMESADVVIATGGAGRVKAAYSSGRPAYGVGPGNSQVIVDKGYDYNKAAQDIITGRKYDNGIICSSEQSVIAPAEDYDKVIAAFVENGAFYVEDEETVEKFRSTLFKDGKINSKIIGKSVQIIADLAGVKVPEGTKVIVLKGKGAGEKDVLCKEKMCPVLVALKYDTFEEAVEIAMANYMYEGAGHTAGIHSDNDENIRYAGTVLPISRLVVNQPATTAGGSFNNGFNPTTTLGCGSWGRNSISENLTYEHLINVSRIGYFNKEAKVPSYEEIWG

[3] = system: CC(C)(COP(=O)(O)OP(=O)(O)OC[C@H]1O[C@@H](n2cnc3c(N)ncnc32)[C@H](O)[C@@H]1OP(=O)(O)O)[C@@H](O)C(=O)NCCC(=O)NCCSC(=O)CCCO; test: purified protein; conditions: 200 mM HEPES pH 7.5, 400 µM NADPH, 400 nM enzyme, 30 °C, apparent KM
[4] = target: the molecule itself; test: crystal structure; X-ray structures of CkSucD without ligands (8CEI), with NADPH (8CEK) and with mesaconyl-C1-CoA (8CEJ); sitting-drop vapor diffusion at 288 K
purified protein [5] = substrate: CCC(=O)SCCNC(=O)CCNC(=O)[C@H](O)C(C)(C)COP(=O)(O)OP(=O)(O)OC[C@H]1O[C@@H](n2cnc3c(N)ncnc32)[C@H](O)[C@@H]1OP(=O)(O)O; test: purified protein; conditions: 200 mM HEPES pH 7.5, 400 µM NADPH, 400 nM enzyme, 30 °C, apparent KM
purified protein [6] = substrate: CC(C)(COP(=O)(O)OP(=O)(O)OC[C@H]1O[C@@H](n2cnc3c(N)ncnc32)[C@H](O)[C@@H]1OP(=O)(O)O)[C@@H](O)C(=O)NCCC(=O)NCCSC(=O)CCC(=O)O; test: purified protein; conditions: 200 mM HEPES pH 7.5, 400 µM NADPH, 400 nM enzyme, 30 °C, apparent KM
purified protein [7] = substrate: C/C=C/C(=O)SCCNC(=O)CCNC(=O)[C@H](O)C(C)(C)COP(=O)(O)OP(=O)(O)OC[C@H]1O[C@@H](n2cnc3c(N)ncnc32)[C@H](O)[C@@H]1OP(=O)(O)O; test: purified protein; conditions: 200 mM HEPES pH 7.5, 400 µM NADPH, 400 nM enzyme, 30 °C, apparent KM
purified protein [8] = substrate: C/C(=C\C(=O)O)C(=O)SCCNC(=O)CCNC(=O)[C@H](O)C(C)(C)COP(=O)(O)OP(=O)(O)OC[C@H]1O[C@@H](n2cnc3c(N)ncnc32)[C@H](O)[C@@H]1OP(=O)(O)O; test: purified protein; conditions: 200 mM HEPES pH 7.5, 400 µM NADPH, 400 nM enzyme, 30 °C, apparent KM
purified protein [9] = substrate: C/C(=C\C(=O)SCCNC(=O)CCNC(=O)[C@H](O)C(C)(C)COP(=O)(O)OP(=O)(O)OC[C@H]1O[C@@H](n2cnc3c(N)ncnc32)[C@H](O)[C@@H]1OP(=O)(O)O)C(=O)O; test: purified protein; conditions: 200 mM HEPES pH 7.5, 400 µM NADPH, 400 nM enzyme, 30 °C, apparent KM
purified protein [10] = substrate: CC(C)(COP(=O)(O)OP(=O)(O)OC[C@H]1O[C@@H](n2cnc3c(N)ncnc32)[C@H](O)[C@@H]1OP(=O)(O)O)[C@@H](O)C(=O)NCCC(=O)NCCSC(=O)CCC(=O)O; test: purified protein; format: biochemical, Clostridioides difficile; conditions: 200 mM HEPES pH 7.5, 400 µM NADPH, 30 °C, apparent KM
purified protein [11] = substrate: C/C(=C\C(=O)O)C(=O)SCCNC(=O)CCNC(=O)[C@H](O)C(C)(C)COP(=O)(O)OP(=O)(O)OC[C@H]1O[C@@H](n2cnc3c(N)ncnc32)[C@H](O)[C@@H]1OP(=O)(O)O; test: purified protein; format: biochemical, Clostridioides difficile; conditions: 200 mM HEPES pH 7.5, 400 µM NADPH, 30 °C, apparent KM

CkSucD (Clostridium kluyveri DSM 555; K70R)
Km [1]: 86.1 ± 15.1 µM
kcat [1]: 0.1 ± 0.01 s⁻¹
Km [2]: 19.9 ± 2.3 µM
kcat [2]: 0.9 ± 0.03 s⁻¹

C/C(=C\C(=O)O)C(=O)SCCNC(=O)CCNC(=O)[C@H](O)C(C)(C)COP(=O)(O)OP(=O)(O)OC[C@H]1O[C@@H](n2cnc3c(N)ncnc32)[C@H](O)[C@@H]1OP(=O)(O)O [mesaconyl-C1-CoA]
X-ray crystal structure, 2.1 Å (CkSucD; 5 mM ligand, pH 7.5, active site, intact ligand in chain C, covalent mesaconyl-Cys242 in chains A, B, D): mesaconyl-C1 CoA bound state (pdb 8CEJ

NC(=O)C1=CN([C@@H]2O[C@H](COP(=O)(O)OP(=O)(O)OC[C@H]3O[C@@H](n4cnc5c(N)ncnc54)[C@H](OP(=O)(O)O)[C@@H]3O)[C@@H](O)[C@H]2O)C=CC1 [NADPH]
X-ray crystal structure, 2.1 Å (CkSucD; 5 mM NADPH, pH 6.5 (abstract calls the ligand NADP+)): 8CEK (with NADPH)

CkSucD (Clostridium kluyveri DSM 555)
Km [3]: 48.9 ± 10.8 µM
kcat [3]: 0.2 ± 0.01 s⁻¹

B1: Succinyl-CoA reductase (SucD) from Clostridium kluyveri (enzyme)
chain: T3 sequence (P38947 1-453)
notes: Succinyl-CoA reductase (SucD) of Clostridium kluyveri, UniProt P38947; In PDB 8CEJ Cys242 carries a mesaconyl-cysteine intermediate in subunits A, B and D; also called CkSucD; source: E. coli BL21 DE3, purified (HisTrap FF, desalting, size exclusion chromatography on Superdex 200)
stoichiometry N [4]: 2
Km (purified protein [5]): 145.2 ± 144 µM
kcat (purified protein [5]): 0.1 ± 0.04 s⁻¹
Km (purified protein [6]): 22.6 ± 4.9 µM
kcat (purified protein [6]): 7.8 ± 0.43 s⁻¹
Km (purified protein [7]): 332.6 ± 54.8 µM
kcat (purified protein [7]): 0.3 ± 0.03 s⁻¹
Km (purified protein [8]): 28.5 ± 4.7 µM
kcat (purified protein [8]): 1.6 ± 0.07 s⁻¹
Km (purified protein [9]): 25.7 ± 6.8 µM
kcat (purified protein [9]): 0.2 ± 0.02 s⁻¹

B2: CdSucD (Clostridioides difficile R20291) (protein)
chain: MEKAVENFEDLSKEYINGYIERARKAQREFECYTQEQVDKIVKIVGKVVYYNAEYLAKLAVEETGMGVYEDKVAKNKSKAKVIYNNLKDKKSVGIIDIDRETGITKVAKPVGVVAAITPCTNPIVTPMSNAMFALKGRNAIIITPHHKAIGCSTKTVEMINEELEKIGAPENLIQILDQQSRENTRNLISSADVVIATGGMGMVKAAYSSGKPALGVGAGNVQCIIDRDVDIKEAVPKIIAGRIFDNGIICSGEQSVIVAEEMFDKIMDEFKNNKGFIVRDKVQKEAFRNAMFVNKSMNKDAVGQSVHTIAKIAGVEIPEDTKIIVIEADGPGEEDIIAKEKMCPVISAYKYKSFEEGVAIAKANLNVEGKGHSVSIHSNTVKNIEYAGENIEVSRFVINQCCATSAGGSFFNGLAPTNTLGCGSWGNNSISENLDYKHLINISRIAYYMPENEVPTDEELWG
notes: His-tagged, expressed in E. coli BL21(DE3), HisTrap purified
Km (purified protein [10]): 213.8 ± 49.4 µM
kcat (purified protein [10]): 28.7 ± 4.1 s⁻¹
Km (purified protein [11]): 38.3 ± 14.9 µM
kcat (purified protein [11]): 0.65 ± 0.08 s⁻¹
